Test results from US20260191957A1 (NOVATIM IMMUNE THERAPEUTICS ZHEJIANG, published 2026).

T1: CD19 on Nalm6-luc tumor cells (CD19+BCMA-) (UniProt P15391 20-556, limits assumed)
T1 sequence (looked up): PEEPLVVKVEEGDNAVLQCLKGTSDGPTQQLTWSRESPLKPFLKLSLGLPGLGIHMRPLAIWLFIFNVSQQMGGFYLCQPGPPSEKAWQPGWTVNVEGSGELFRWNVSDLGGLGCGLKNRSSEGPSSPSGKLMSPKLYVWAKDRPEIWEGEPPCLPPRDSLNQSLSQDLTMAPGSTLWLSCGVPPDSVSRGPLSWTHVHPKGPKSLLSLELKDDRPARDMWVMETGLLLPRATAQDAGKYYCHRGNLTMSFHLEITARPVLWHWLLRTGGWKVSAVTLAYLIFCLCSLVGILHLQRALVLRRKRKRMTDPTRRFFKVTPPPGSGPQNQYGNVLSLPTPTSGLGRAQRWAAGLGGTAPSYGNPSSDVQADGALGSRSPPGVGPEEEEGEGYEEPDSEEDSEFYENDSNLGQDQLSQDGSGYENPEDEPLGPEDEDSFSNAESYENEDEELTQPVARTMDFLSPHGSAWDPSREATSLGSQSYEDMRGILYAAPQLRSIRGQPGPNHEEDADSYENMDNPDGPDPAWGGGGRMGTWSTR


Target: T1, CD19 on Nalm6-luc tumor cells …
Test: cell-based or functional assay

Binder	tumor cell killing rate, Nalm6-luc, E:T 1:8, 72 h luciferase assay	tumor cell killing rate, Nalm6-luc, E:T 1:16, 72 h luciferase assay
B19 CAR (BCMA CAR and CD19-mutant CAR expressed in parallel on T cells) (other) chain 1: DIVLTQSPPSLAMSLGKRATISCRASESVTILGSHLIHWYQQKPGQPPTLLIQLASNVQTGVPARFSGSGSRTDFTLTIDPVEEDDVAVYYCLQSRTIPRTFGGGTKLEIKGGGGSGGGGSGGGGSQIQLVQSGPELKKPGETVKISCKASGYTFTDYSINWVKRAPGKGLKWMGWINTETREPAYAYDFRGRFAFSLETSASTAYLQINNLKYEDTATYFCALDYSYAMDYWGQGTSVTVSSTTTPAPRPPTPAPTIASQPLSLRPEACRPAAGGAVHTRGLDFACDIYIWAPLAGTCGVLLLSLVITLYCKRGRKKLLYIFKQPFMRPVQTTQEEDGCSCRFPEEEEGGCELRVKFSRSADAPAYQQGQNQLYNELNLGRREEYDVLDKRRGRDPEMGGKPRRKNPQEGLYNELQKDKMAEAYSEIGMKGERRRGKGHDGLYQGLSTATKDTYDALHMQALPPR chain 2: DIQMTQTTSSLSASLGDRVTISCRASQDISKYLNWYQQKPDGTVKLLIYHTSRLHSGVPSRFSGSGSGTDYSLTISNLEQEDIATYFCQQGNTLPYTFGGGTKLEITGGGGSGGGGSGGGGSEVKLQESGPGLVAPSQSLSVTCTVSGVSLPDYGVSWIRQPPRKGLEWLGVIWGSETTYYNSALKSRLTIIKDNSKSQVFLKMNSLQTDDTAIYYCAKHYYYGGSYAMDYWGQGTSVTVSSIEVMYPPPYLDNEKSNGTIIHVKGKHLCPSPLFPGPSKPFWVLVVVGGVLACYSLLVTVAFIIFWVRSKRSRLLHSDYMFMTPRRPGPTRKHYQPYAPPRDFAAYRSRVKFSRSADAPAYQQGQNQLYNELNLGRREEYDVLDKRRGRDPEMGGKPRRKNPQEGLYNELQKDKMAEAYSEIGMKGERRRGKGHDGLYQGLSTATKDTYDALHMQALPPR	71.8%	49%
B19-wildtype CAR (BCMA CAR and CD19-wildtype CAR expressed in parallel on T cells) (other) chain 1: DIVLTQSPPSLAMSLGKRATISCRASESVTILGSHLIHWYQQKPGQPPTLLIQLASNVQTGVPARFSGSGSRTDFTLTIDPVEEDDVAVYYCLQSRTIPRTFGGGTKLEIKGGGGSGGGGSGGGGSQIQLVQSGPELKKPGETVKISCKASGYTFTDYSINWVKRAPGKGLKWMGWINTETREPAYAYDFRGRFAFSLETSASTAYLQINNLKYEDTATYFCALDYSYAMDYWGQGTSVTVSSTTTPAPRPPTPAPTIASQPLSLRPEACRPAAGGAVHTRGLDFACDIYIWAPLAGTCGVLLLSLVITLYCKRGRKKLLYIFKQPFMRPVQTTQEEDGCSCRFPEEEEGGCELRVKFSRSADAPAYQQGQNQLYNELNLGRREEYDVLDKRRGRDPEMGGKPRRKNPQEGLYNELQKDKMAEAYSEIGMKGERRRGKGHDGLYQGLSTATKDTYDALHMQALPPR chain 2: DIQMTQTTSSLSASLGDRVTISCRASQDISKYLNWYQQKPDGTVKLLIYHTSRLHSGVPSRFSGSGSGTDYSLTISNLEQEDIATYFCQQGNTLPYTFGGGTKLEITGGGGSGGGGSGGGGSEVKLQESGPGLVAPSQSLSVTCTVSGVSLPDYGVSWIRQPPRKGLEWLGVIWGSETTYYNSALKSRLTIIKDNSKSQVFLKMNSLQTDDTAIYYCAKHYYYGGSYAMDYWGQGTSVTVSSIEVMYPPPYLDNEKSNGTIIHVKGKHLCPSPLFPGPSKPFWVLVVVGGVLACYSLLVTVAFIIFWVRSKRSRLLHSDYMNMTPRRPGPTRKHYQPYAPPRDFAAYRSRVKFSRSADAPAYQQGQNQLYNELNLGRREEYDVLDKRRGRDPEMGGKPRRKNPQEGLYNELQKDKMAEAYSEIGMKGERRRGKGHDGLYQGLSTATKDTYDALHMQALPPR	55%	30.6%
